The values that follow are results of earlier work, collected in PMC8242001.

For the data set, the target named is eIF4E (Saccharomyces cerevisiae) (UniProt P07260). As to the kind of experiment: ITC. On the technique in general: ITC needs no label: the signal is the heat of the interaction.
Sequence of UniProt P07260 (P07260 whole entry): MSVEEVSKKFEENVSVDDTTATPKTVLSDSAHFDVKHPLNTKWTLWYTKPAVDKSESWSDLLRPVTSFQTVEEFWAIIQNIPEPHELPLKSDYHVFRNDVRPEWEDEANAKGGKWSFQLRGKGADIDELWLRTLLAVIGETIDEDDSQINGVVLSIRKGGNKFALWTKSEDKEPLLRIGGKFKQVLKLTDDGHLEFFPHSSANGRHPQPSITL

Consider Caf20 (from UniProt P12962), for which the Kd is 20 nM.

In general, Kd refers to the equilibrium constant for the complex coming apart.
